{"source": "paper PMC7269643", "about": "(Science Advances, 2020)", "proteins": {"B1": {"name": "VapC22 toxin from Mycobacterium tuberculosis, expressed alone from a modified pBAD/Myc-His vector (enzyme)", "chain": "MTTVLLDSHVAYWWSAEPQRLSMAASQAIEHADELAVAAISWFELAWLAEQERIQLAIPVLSWLQQLAEHVRTVGITPSVAATAVALPSSFPGDPADRLIYATAIEHGWRLVTKDRRLRSHRHPRPVTVW"}}, "target": "the molecule itself", "assay": "AUC"}
{"protein": "B1", "values": [{"measurement": "stoichiometry N", "value": 2}]}
